What follows are sequences tested against HLA-A*02:01 (assay: IEDB peptide-MHC binding, purified MHC/competitive/radioactivity; filed as Kd, often an IC50 or EC50 that approximates it; ≥ and ≤ were set here for values at or beyond the usual limits of such assays). Details: source organism: Mycobacterium tuberculosis.
With GIVSGILLSI the Kd was 152 nM. For ALYLLDGLRA, the Kd was 263 nM. YLYVHSPAL showed a Kd of 5.4 nM. Sequence LLFRFMRPL has a Kd of 35.7 nM. MLGNAPSVV showed a Kd of 227 nM. AMLQDMAIL was tested, and the Kd was 98 nM. For LLAAGVADPV, the Kd was 217 nM. ILLSIARVV gave a Kd of 454 nM. SLAGFVRML was tested, and the Kd was 111 nM. Sequence KLTADGVLTA has a Kd of 200 nM. AIAWGAWGEV showed a Kd of 312 nM. With LLPLGYPFV the Kd was 333 nM. GLFLTTEAVV gave a Kd of 238 nM. Work on YLLALRYLA yielded a Kd of 10 nM. MTYAAPLFV showed a Kd of 13.8 nM. Sequence ATYDKGILTV has a Kd of 156 nM. Work on GLYYLTTEV yielded a Kd of 20.8 nM. Sequence GLAGTVLRFV has a Kd of 109 nM. With VLLLDVTPL the Kd was 50 nM. For FLLADERVRV, the Kd was 116 nM. For LMIGTAAAVV, the Kd was 54 nM. Sequence SLYFGGICVI has a Kd of 167 nM. YTYKWETFL showed a Kd of 29 nM. MALLRLPLV gave a Kd of 52.6 nM. In the case of RLQPQVGWEV, the Kd is reported as 178 nM. Sequence LLWQDPVPA has a Kd of 45.4 nM. Work on LMLPGMNGI yielded a Kd of 238 nM. FMSLAGFVRM showed a Kd of 116 nM. Work on ILSSLGLPV yielded a Kd of 50 nM. Work on TVLRFVPPL yielded a Kd of 76.9 nM. With LLFRFMRPLI the Kd was 83.3 nM. LLLETSWEAI was tested, and the Kd was 106 nM. RLMIGTAAA was tested, and the Kd was 227 nM. In the case of FLTCDANLAV, the Kd is reported as 104 nM. Sequence GLYGAQYDV has a Kd of 250 nM. For MLASTLTDA, the Kd was 250 nM. In the case of AVHDTLFYCV, the Kd is reported as 104 nM. Sequence SLLEIGEGVV has a Kd of 50 nM. In the case of RMSRVTTFTV, the Kd is reported as 75.5 nM. For GLMTAVYLV, the Kd was 8.9 nM. Sequence RIANGMGATV has a Kd of 385 nM. For KIFMLVTAVV, the Kd was 417 nM. Work on ALVLLMLPVV yielded a Kd of 6.8 nM. For LALVLLMLPV, the Kd was 333 nM. With LLCCSGVATA the Kd was 152 nM. For AIYHPQQFV, the Kd was 313 nM. FLLPDAQSI gave a Kd of 385 nM. Work on LLGSFELTGI yielded a Kd of 26 nM. SLYFGGICV showed a Kd of 10.6 nM. With LLFLGVVFL the Kd was 50 nM. AMALLRLPLV showed a Kd of 5.1 nM. LLLDVTPLSL was tested, and the Kd was 17 nM. For ALLSDWLPA, the Kd was 94.3 nM. Sequence YLSQIAVLL has a Kd of 12.1 nM. WLLIDTSNA showed a Kd of 357 nM. Work on FVVALIPLV yielded a Kd of 7.6 nM. For VLLEDGGVEV, the Kd was 333 nM. FLMPVEDVFI showed a Kd of 3.3 nM. Sequence WMAETTLGRV has a Kd of 294 nM. Work on YLSEGDMAA yielded a Kd of 294 nM. GLGGLGLFFA gave a Kd of 89.2 nM. Work on GLYRQWALA yielded a Kd of 185 nM. MLATDLSLRV gave a Kd of 109 nM. In the case of MLQDMAILT, the Kd is reported as 167 nM. Sequence AMKADIQHV has a Kd of 167 nM. With RMPAVTDLV the Kd was 125 nM. Work on SLLEIGEGV yielded a Kd of 98 nM. In the case of LLACAVIHA, the Kd is reported as 250 nM. GLVDFVKHI showed a Kd of 217 nM. In the case of RLLDDTPEV, the Kd is reported as 96.1 nM. In the case of LLATVFKLTA, the Kd is reported as 250 nM.

— the Immune Epitope Database (IEDB)
